Values of other authors, collected in article PMC6175838.

Legend:
claudin-4 (Homo sapiens) = claudin-4 (Homo sapiens) (UniProt O14493); experiment: given as Ka
claudin-3 (Homo sapiens) = claudin-3 (Homo sapiens) (UniProt O15551); experiment: given as Ka
Sequence of UniProt O15551 (O15551 whole entry): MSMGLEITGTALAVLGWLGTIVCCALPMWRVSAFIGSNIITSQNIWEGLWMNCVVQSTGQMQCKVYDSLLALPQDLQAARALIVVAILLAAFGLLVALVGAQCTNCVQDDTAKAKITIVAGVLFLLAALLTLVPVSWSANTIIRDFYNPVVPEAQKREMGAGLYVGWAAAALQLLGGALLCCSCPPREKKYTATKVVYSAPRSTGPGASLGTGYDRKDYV

Sequence of UniProt O14493 (O14493 whole entry): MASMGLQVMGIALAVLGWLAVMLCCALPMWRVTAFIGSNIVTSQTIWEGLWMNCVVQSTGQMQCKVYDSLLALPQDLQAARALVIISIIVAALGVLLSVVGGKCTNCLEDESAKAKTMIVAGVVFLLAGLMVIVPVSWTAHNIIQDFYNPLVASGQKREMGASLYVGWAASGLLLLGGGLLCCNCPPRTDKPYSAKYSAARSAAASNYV

For “C-CPE C-terminal domain (from UniProt P01558)”, the Kd (claudin-4 (Homo sapiens)) is given as 0.01 µM and the Kd (claudin-3 (Homo sapiens)) is given as 0.01 µM.
